Drawing on PMC6082896, this text covers binding for one sequence.

The target of the data set is T1, OxyR (Pseudomonas aeruginosa (PAO1?)) (UniProt Q9HTL4).
T1 sequence: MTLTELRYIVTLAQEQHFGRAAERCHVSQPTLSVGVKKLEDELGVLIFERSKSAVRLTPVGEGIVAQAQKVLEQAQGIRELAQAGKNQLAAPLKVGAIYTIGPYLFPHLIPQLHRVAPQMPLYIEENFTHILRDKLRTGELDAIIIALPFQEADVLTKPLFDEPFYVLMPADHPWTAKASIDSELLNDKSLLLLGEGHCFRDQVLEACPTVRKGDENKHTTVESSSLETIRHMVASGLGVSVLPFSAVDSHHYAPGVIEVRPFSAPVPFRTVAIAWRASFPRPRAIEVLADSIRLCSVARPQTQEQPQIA
In words: EMSA. Particulars: 20 mM Tris-HCl pH 7.0, 50 mM KCl, 1 mM EDTA, 5% glycerol, 50 ug/ml BSA, 5 ug/ml calf thymus DNA, 0.5 ug/ml poly[dI-dC], 50 ug/ml salmon sperm DNA, 100 mM DTT ….

As for “AAGTCGGTGATGGCCTCGCCGGCCAGGCGGCGCAGGCGCTTCTGCAGTTTGTTCTGATTGACCGAAAGGGTGCCCATGGTGCTCTGGAATCCGGGTGTTCGAGGAGAAAAGCTGGCTATTTTACGCACAAAGCGACGCCGACCCCAGCCCCTCCCGACGCCCGATGCTAGTCTTGCCCCATGACTCCCGACCTCGACCACCGCCTCGACCT (double strand) [ttcA promoter fragment]”, the binding entry was “binds”.
